Experimental data from patent US6465618.

What was measured:
His-SAPK3, O08911 = target: T1, His-SAPK3, O08911
T1 chain: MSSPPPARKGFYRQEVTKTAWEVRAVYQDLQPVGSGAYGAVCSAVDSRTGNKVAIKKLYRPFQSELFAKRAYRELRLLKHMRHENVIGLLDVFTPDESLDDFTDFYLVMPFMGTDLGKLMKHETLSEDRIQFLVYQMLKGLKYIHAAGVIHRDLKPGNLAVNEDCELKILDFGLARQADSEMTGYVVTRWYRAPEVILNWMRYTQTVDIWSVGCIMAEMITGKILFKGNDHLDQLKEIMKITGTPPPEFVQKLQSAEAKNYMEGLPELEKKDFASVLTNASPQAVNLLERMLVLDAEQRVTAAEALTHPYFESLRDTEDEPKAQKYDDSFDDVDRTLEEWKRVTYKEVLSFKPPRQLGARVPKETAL

Chain of His-p38, P47811 (P47811 whole entry): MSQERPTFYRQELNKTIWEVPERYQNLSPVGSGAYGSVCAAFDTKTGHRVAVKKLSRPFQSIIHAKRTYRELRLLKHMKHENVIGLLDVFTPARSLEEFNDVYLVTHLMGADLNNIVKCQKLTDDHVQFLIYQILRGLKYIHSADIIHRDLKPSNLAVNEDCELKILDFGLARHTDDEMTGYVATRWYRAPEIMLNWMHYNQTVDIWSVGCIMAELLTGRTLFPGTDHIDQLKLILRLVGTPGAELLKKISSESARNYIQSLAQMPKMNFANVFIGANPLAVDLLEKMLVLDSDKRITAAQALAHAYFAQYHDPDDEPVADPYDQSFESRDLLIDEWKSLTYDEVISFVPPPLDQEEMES
Chain of GST-JNK1, P45983 (P45983 other isoform, or with tags, fused parts or gaps): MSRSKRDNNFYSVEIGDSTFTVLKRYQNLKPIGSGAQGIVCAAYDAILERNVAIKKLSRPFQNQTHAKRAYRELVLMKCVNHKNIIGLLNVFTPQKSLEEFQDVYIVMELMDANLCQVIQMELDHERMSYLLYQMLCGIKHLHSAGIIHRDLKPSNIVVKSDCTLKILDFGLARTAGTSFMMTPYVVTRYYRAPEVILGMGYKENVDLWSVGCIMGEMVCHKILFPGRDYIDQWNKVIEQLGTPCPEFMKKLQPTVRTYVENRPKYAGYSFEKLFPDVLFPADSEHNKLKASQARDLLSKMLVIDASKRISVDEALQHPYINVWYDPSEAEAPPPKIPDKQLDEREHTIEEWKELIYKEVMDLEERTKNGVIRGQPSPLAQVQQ

B1: activated GST-MKK7 (protein)
chain: AASSLEQKLSRLEAKLKQENREARRRIDLNLDISPQRPRPIIVITLSPAPAPSQRAALQLPLANDGGSRSPSSESSPQHPTPPARPRHMLGLPSTLFTPRSMESIEIDQKLQEIMKQTGYLTIGGQRYQAEINDLENLGEMGSGTCGQVWKMRFRKTGHVIAVKQMRRSGNKEENKRILMDLDVVLKSHDCPYIVQCFGTFITNTDVFIAMELMGTCAEKLKKRMQGPIPERILGKMTVAIVKALYYLKEKHGVIHRDVKPSNILLDERGQIKLCDFGISGRLVDSKAKTRSAGCAAYMAPERIDPPDPTKPDYDIRADVWSLGISLVELATGQFPYKNCKTDFEVLTKVLQEEPPLLPGHMGFSGDFQSFVKDCLTKDHRKRPKYNKLLEHSFIKRYETLEVDVASWFKDVMAKTESPRTSGVLSQPHLPFFR
phosphorylation (activation) of JNK1 in vitro, dot blot with anti-activated JNK antibody (GST-JNK1, P45983): the activity of MKK7 was confirmed by the presence of activated JNK1

B2: His-MKK7 (protein)
chain: AASSLEQKLSRLEAKLKQENREARRRIDLNLDISPQRPRPIIVITLSPAPAPSQRAALQLPLANDGGSRSPSSESSPQHPTPPTRPRHMLGLPSTLFTPRSMESIEIDQKLQEIMKQTGYLTIGGQRYQAEINDLENLGEMGSGTCGQVWKMRFRKTGHIIAVKQMRRSGNKEENKRILMDLDVVLKSHDCPYIVQCFGTFITNTDVFIAMELMGTCAEKLKKRMQGPIPERILGKMTVAIVKALYYLKEKHGVIHRDVKPSNILLDERGQIKLCDFGISGRLVDSKAKTRSAGCAAYMAPERIDPPDPTKPDYDIRADVWSLGISLVELATGQFPYKNCKTDFEVLTKVLQEEPPLLPGHMGFSGDFQSFVKDCLTKDHRKRPKYNKLLEHSFIKHYEILEVDVASWFKDVMAKTESPRTSGVLSQHHLPFFSGSLEESPTSPPSPKSFPLSPAIPQAQAEWVSGR
activation of the MAP kinase in vitro (32P phosphorylation of MBP, SDS-PAGE and autoradiography) (His-SAPK3, O08911): did not activate p38 and SAPK3 | activation of the MAP kinase in vitro (32P phosphorylation of ATF-2, SDS-PAGE and autoradiography) (His-p38, P47811): did not activate p38 and SAPK3 | activation of the MAP kinase in vitro (32P phosphorylation of GST-cJun, SDS-PAGE and autoradiography) (His-SAPKα, Q9WTU6): specifically activated SAPK, leading to the phosphorylation of c-Jun

B3: GST-SEK1 (protein)
chain: MAAPSPSGGGGSGGGGGTPGPIGPPASGHPAVSSMQGKRKALKLNFANPPVKSTARFTLNPNTTGVQNPHIERLRTHSIESSGKLKISPEQHWDFTAEDLKDLGEIGRGAYGSVNKMVHKPSGQIMAVKRIRSTVDEKEQKQLLMDLDVVMRSSDCPYIVQFYGALFREGDCWICMELMSTSFDKFYKYVYSVLDDVIPEEILGKITLATVKALNHLKENLKIIHRDIKPSNILLDRSGNIKLCDFGISGQLVDSIAKTRDAGCRPYMAPERIDPSASRQGYDVRSDVWSLGITLYELATGRFPYPKWNSVFDQLTQVVKGDPPQLSNSEEREFSPSFINFVNLCLTKDESKRPKYKELLKHPFILMYEERTVEVACYVCKILDQMPATPSSPMYVD
activation of the MAP kinase in vitro (32P phosphorylation of MBP, SDS-PAGE and autoradiography) (His-SAPK3, O08911): activated all of SAPK, p38 and SAPK3 | activation of the MAP kinase in vitro (32P phosphorylation of ATF-2, SDS-PAGE and autoradiography) (His-p38, P47811): activated all of SAPK, p38 and SAPK3 | activation of the MAP kinase in vitro (32P phosphorylation of GST-cJun, SDS-PAGE and autoradiography) (His-SAPKα, Q9WTU6): activated all of SAPK, p38 and SAPK3

B4: His-MKK6 (protein)
chain: MSQSKGKKRNPGLKIPKEAFEQPQTSSTPPRDLDSKACISIGNQNFEVKADDLEPIMELGRGAYGVVEKMRHVPSGQIMAVKRIRATVNSQEQKRLLMDLDISMRTVDCPFTVTFYGALFREGDVWICMELMDTSLDKFYKQVIDKGQTIPEDILGKIAVSIVKALEHLHSKLSVIHRDVKPSNVLINALGQVKMCDFGISGYLVDSVAKTIDAGCKPYMAPERINPELNQKGYSVKSDIWSLGITMIELAILRFPYDSWGTPFQQLKQVVEEPSPQLPADKFSAEFVDFTSQCLKKNSKERPTYPELMQHPFFTLHESKGTDVASFVKLILGD
activation of the MAP kinase in vitro (32P phosphorylation of MBP, SDS-PAGE and autoradiography) (His-SAPK3, O08911): activated p38 and SAPK3 | activation of the MAP kinase in vitro (32P phosphorylation of ATF-2, SDS-PAGE and autoradiography) (His-p38, P47811): activated p38 and SAPK3 | activation of the MAP kinase in vitro (32P phosphorylation of GST-cJun, SDS-PAGE and autoradiography) (His-SAPKα, Q9WTU6): did not activate SAPK
